From paper PMC11789342, “5-Aminolevulinic acid activates the MdWRKY71-MdMADS1 module to enhance anthocyanin biosynthesis in apple” come the findings set out here.

In the series the target is MdWRKY71 (Malus x domestica, UniProt A0A7S5AU16 1-327). Briefly: EMSA; LightShift Chemiluminescent EMSA Kit per manufacturer; buffer, salt, pH and temperature not stated. To be noted: protein: recombinant; tags: His (pET32a); label: biotin. On the technique in general: A gel shift assay detects complexes by their altered migration in electrophoresis.
Chain of MdWRKY71 (A0A7S5AU16 entry or part of it): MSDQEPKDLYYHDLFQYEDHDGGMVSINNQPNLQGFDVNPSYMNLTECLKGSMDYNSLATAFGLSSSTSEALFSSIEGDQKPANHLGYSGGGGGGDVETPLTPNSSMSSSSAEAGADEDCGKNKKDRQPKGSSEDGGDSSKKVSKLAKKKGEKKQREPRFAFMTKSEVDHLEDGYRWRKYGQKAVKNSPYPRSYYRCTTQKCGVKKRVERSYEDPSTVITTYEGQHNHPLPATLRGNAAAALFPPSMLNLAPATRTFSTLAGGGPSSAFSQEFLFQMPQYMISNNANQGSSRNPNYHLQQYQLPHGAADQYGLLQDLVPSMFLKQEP

B1: ProMdMADS1 W-box2 mutant probe (dsDNA)
DNA 1: ATTTACTATTTTTAGCATTACAATTT
DNA 2: AAATTGTAATGCTAAAAATAGTAAAT
For B1, the binding result is reported as “no binding”.

B2: ProMdMADS1 W-box3 mutant probe (dsDNA)
DNA 1: CCTGAGGTTATTAACGCCAAAAGAAAA
DNA 2: TTTTCTTTTGGCGTTAATAACCTCAGG
B2: the binding result was “no binding”.

B3: ProMdDFR W-box probe (dsDNA)
DNA 1: TGGGACTCTTCATTGACTCTCCGCCACATC
DNA 2: GATGTGGCGGAGAGTCAATGAAGAGTCCCA
Take B3: the binding result was “binds”.

B4: ProMdMADS1 W-box1 mutant probe (dsDNA)
DNA 1: ACTTTGTGGCTTTAGCATTTTGAAGA
DNA 2: TCTTCAAAATGCTAAAGCCACAAAGT
For the molecule B4, the binding result is recorded as “no binding”.

B5: ProMdANS W-box probe (dsDNA)
DNA 1: ATCCCAGATGTGTTGACTGTTCATGCTCAG
DNA 2: CTGAGCATGAACAGTCAACACATCTGGGAT
Regarding B5, the binding result is “binds”.
